From patent US20250263504A1 (Takeda / Millennium, published 2025) come the findings set out here.

The target of one test is T1, plasma kallikrein (pKal) (UniProt P03952 20-390; P03952 391-638, limits assumed).
T1 construct: the description speaks of human pKal; also called active pKal
Briefly: enzyme inhibition, corrected Ki,app.

The next test addresses T2, Factor XIIa (FXIIa) (UniProt P00748 20-372; P00748 373-615, limits assumed).
T2 construct: the description speaks of human FXIIa; also called active Factor XII
T2 sequence (looked up) 1: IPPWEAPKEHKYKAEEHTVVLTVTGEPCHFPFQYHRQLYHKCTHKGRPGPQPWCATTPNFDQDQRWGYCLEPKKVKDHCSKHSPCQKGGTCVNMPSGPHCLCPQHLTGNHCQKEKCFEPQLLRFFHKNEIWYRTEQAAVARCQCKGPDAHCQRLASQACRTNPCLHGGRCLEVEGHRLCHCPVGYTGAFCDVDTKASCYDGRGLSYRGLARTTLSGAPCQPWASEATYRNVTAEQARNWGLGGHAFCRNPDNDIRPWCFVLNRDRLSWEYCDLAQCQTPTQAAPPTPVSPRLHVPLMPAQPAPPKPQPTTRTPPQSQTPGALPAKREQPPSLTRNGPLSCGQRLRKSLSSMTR
T2 sequence (looked up) 2: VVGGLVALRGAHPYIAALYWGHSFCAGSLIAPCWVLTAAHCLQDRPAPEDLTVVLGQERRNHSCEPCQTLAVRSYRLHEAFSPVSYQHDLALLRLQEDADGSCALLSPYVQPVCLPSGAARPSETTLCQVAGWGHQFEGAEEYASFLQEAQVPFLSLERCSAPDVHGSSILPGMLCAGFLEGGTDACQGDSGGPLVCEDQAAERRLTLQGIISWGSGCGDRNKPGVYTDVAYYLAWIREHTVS
The experiment in a line: enzyme inhibition, corrected Ki,app.

T1 sequence (P03952 20-390 limits assumed, form in doubt, chain 1 of 2): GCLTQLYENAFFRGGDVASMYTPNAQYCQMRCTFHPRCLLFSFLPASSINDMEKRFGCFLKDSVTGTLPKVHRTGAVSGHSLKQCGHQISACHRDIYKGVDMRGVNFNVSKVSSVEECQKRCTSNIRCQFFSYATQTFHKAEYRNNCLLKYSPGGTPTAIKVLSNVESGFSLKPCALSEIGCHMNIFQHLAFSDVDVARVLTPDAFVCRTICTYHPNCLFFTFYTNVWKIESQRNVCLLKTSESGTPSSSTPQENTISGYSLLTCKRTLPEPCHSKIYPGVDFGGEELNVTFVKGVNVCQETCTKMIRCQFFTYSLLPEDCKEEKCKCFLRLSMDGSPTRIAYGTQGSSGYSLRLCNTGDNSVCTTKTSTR
T1 sequence (P03952 391-638 limits assumed, form in doubt, chain 2 of 2): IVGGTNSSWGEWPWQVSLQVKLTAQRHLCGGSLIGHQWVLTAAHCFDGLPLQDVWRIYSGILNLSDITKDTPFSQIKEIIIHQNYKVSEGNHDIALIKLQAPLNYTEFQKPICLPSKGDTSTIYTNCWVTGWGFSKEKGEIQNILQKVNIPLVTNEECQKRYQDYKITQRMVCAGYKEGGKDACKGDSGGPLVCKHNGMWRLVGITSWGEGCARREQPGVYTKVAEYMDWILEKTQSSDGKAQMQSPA

B1: 620I-X0138-B07 (bispecific antibody)
heavy: not shown
light: DIQMTQSPSTLSASVGDRVTITCRASQSISSWLAWYQQKPGKAPKLLIYKASTLESGVPSRFSGSGSGTEFTLTISSLQPDDFATYYCQQYNTYWTFGQGTKVEIKRTVAAPSVFIFPPSDEQLKSGTASVVCLLNNFYPREAKVQWKVDNALQSGNSQESVTEQDSKDSTYSLSSTLTLSKADYEKHKVYACEVTHQGLSSPVTKSFNRGEC
notes: also called 620I-X138-B07
Consider B1, for which the Ki was 0.246 nM in the test with plasma kallikrein (pKal) and 0.135 nM in the test with Factor XIIa (FXIIa).

B2: 620I-X0139-A11 (bispecific antibody)
heavy: not shown
light: DIQMTQSPSTLSASVGDRVTITCRASQSISSWLAWYQQKPGKAPKLLIYKASTLESGVPSRFSGSGSGTEFTLTISSLQPDDFATYYCQQYNTYWTFGQGTKVEIKRTVAAPSVFIFPPSDEQLKSGTASVVCLLNNFYPREAKVQWKVDNALQSGNSQESVTEQDSKDSTYSLSSTLTLSKADYEKHKVYACEVTHQGLSSPVTKSFNRGEC
notes: also called 620I-X139-A11
For B2, the figures for the Ki with plasma kallikrein (pKal) and with Factor XIIa (FXIIa) were 0.235 nM and 3.83 nM, respectively.

B3: 620I-X0138-E03 (bispecific antibody)
heavy: not shown
light: DIQMTQSPSTLSASVGDRVTITCRASQSISSWLAWYQQKPGKAPKLLIYKASTLESGVPSRFSGSGSGTEFTLTISSLQPDDFATYYCQQYNTYWTFGQGTKVEIKRTVAAPSVFIFPPSDEQLKSGTASVVCLLNNFYPREAKVQWKVDNALQSGNSQESVTEQDSKDSTYSLSSTLTLSKADYEKHKVYACEVTHQGLSSPVTKSFNRGEC
notes: also called 620I-X138-E03
In the case of B3, the figures for the Ki with plasma kallikrein (pKal) and with Factor XIIa (FXIIa) were 0.178 nM and 0.122 nM, respectively.

B4: 620I-X0138-E05 (bispecific antibody)
heavy: not shown
light: DIQMTQSPSTLSASVGDRVTITCRASQSISSWLAWYQQKPGKAPKLLIYKASTLESGVPSRFSGSGSGTEFTLTISSLQPDDFATYYCQQYNTYWTFGQGTKVEIKRTVAAPSVFIFPPSDEQLKSGTASVVCLLNNFYPREAKVQWKVDNALQSGNSQESVTEQDSKDSTYSLSSTLTLSKADYEKHKVYACEVTHQGLSSPVTKSFNRGEC
notes: also called 620I-X138-E05
On to B4, for which the Ki with plasma kallikrein (pKal) is 0.186 nM; with Factor XIIa (FXIIa) it was 0.245 nM.

B5: 620I-X0138-D03 (bispecific antibody)
heavy: not shown
light: DIQMTQSPSTLSASVGDRVTITCRASQSISSWLAWYQQKPGKAPKLLIYKASTLESGVPSRFSGSGSGTEFTLTISSLQPDDFATYYCQQYNTYWTFGQGTKVEIKRTVAAPSVFIFPPSDEQLKSGTASVVCLLNNFYPREAKVQWKVDNALQSGNSQESVTEQDSKDSTYSLSSTLTLSKADYEKHKVYACEVTHQGLSSPVTKSFNRGEC
notes: also called 620I-X138-D03
As to B5, the Ki with plasma kallikrein (pKal) came to 0.079 nM; with Factor XIIa (FXIIa) it was 0.344 nM.

B6: 620I-X0138-F05 (bispecific antibody)
heavy: not shown
light: DIQMTQSPSTLSASVGDRVTITCRASQSISSWLAWYQQKPGKAPKLLIYKASTLESGVPSRFSGSGSGTEFTLTISSLQPDDFATYYCQQYNTYWTFGQGTKVEIKRTVAAPSVFIFPPSDEQLKSGTASVVCLLNNFYPREAKVQWKVDNALQSGNSQESVTEQDSKDSTYSLSSTLTLSKADYEKHKVYACEVTHQGLSSPVTKSFNRGEC
notes: also called 620I-X138-F05
As to B6, the Ki with plasma kallikrein (pKal) came out at 0.214 nM; with Factor XIIa (FXIIa), 0.147 nM.

B7: 620I-X0138-D04 (bispecific antibody)
heavy: not shown
light: DIQMTQSPSTLSASVGDRVTITCRASQSISSWLAWYQQKPGKAPKLLIYKASTLESGVPSRFSGSGSGTEFTLTISSLQPDDFATYYCQQYNTYWTFGQGTKVEIKRTVAAPSVFIFPPSDEQLKSGTASVVCLLNNFYPREAKVQWKVDNALQSGNSQESVTEQDSKDSTYSLSSTLTLSKADYEKHKVYACEVTHQGLSSPVTKSFNRGEC
notes: also called 620I-X138-D04
Consider B7, for which the Ki worked out at 0.215 nM with plasma kallikrein (pKal) and 0.079 nM in the test with Factor XIIa (FXIIa).

B8: 620I-X0138-C07 (bispecific antibody)
heavy: not shown
light: DIQMTQSPSTLSASVGDRVTITCRASQSISSWLAWYQQKPGKAPKLLIYKASTLESGVPSRFSGSGSGTEFTLTISSLQPDDFATYYCQQYNTYWTFGQGTKVEIKRTVAAPSVFIFPPSDEQLKSGTASVVCLLNNFYPREAKVQWKVDNALQSGNSQESVTEQDSKDSTYSLSSTLTLSKADYEKHKVYACEVTHQGLSSPVTKSFNRGEC
notes: also called 620I-X138-C07
With B8, the figures for the Ki in the test with plasma kallikrein (pKal) and in the test with Factor XIIa (FXIIa) were 0.196 nM and 0.314 nM, respectively.

B9: 620I-X0138-F02 (bispecific antibody)
heavy: not shown
light: DIQMTQSPSTLSASVGDRVTITCRASQSISSWLAWYQQKPGKAPKLLIYKASTLESGVPSRFSGSGSGTEFTLTISSLQPDDFATYYCQQYNTYWTFGQGTKVEIKRTVAAPSVFIFPPSDEQLKSGTASVVCLLNNFYPREAKVQWKVDNALQSGNSQESVTEQDSKDSTYSLSSTLTLSKADYEKHKVYACEVTHQGLSSPVTKSFNRGEC
notes: also called 620I-X138-F02
For the molecule B9, the results for the Ki in the test with plasma kallikrein (pKal) and in the test with Factor XIIa (FXIIa) were 0.464 nM and 0.794 nM, respectively.

B10: 620I-X0139-A01 (bispecific antibody)
heavy: not shown
light: DIQMTQSPSTLSASVGDRVTITCRASQSISSWLAWYQQKPGKAPKLLIYKASTLESGVPSRFSGSGSGTEFTLTISSLQPDDFATYYCQQYNTYWTFGQGTKVEIKRTVAAPSVFIFPPSDEQLKSGTASVVCLLNNFYPREAKVQWKVDNALQSGNSQESVTEQDSKDSTYSLSSTLTLSKADYEKHKVYACEVTHQGLSSPVTKSFNRGEC
notes: also called 620I-X139-A01
With B10, the Ki with plasma kallikrein (pKal) worked out at 0.146 nM; with Factor XIIa (FXIIa) it was 0.053 nM.

B11: 620I-X0138-D05 (bispecific antibody)
heavy: not shown
light: DIQMTQSPSTLSASVGDRVTITCRASQSISSWLAWYQQKPGKAPKLLIYKASTLESGVPSRFSGSGSGTEFTLTISSLQPDDFATYYCQQYNTYWTFGQGTKVEIKRTVAAPSVFIFPPSDEQLKSGTASVVCLLNNFYPREAKVQWKVDNALQSGNSQESVTEQDSKDSTYSLSSTLTLSKADYEKHKVYACEVTHQGLSSPVTKSFNRGEC
notes: also called 620I-X138-D05
As for B11, the results for the Ki with plasma kallikrein (pKal) and with Factor XIIa (FXIIa) were 0.519 nM and 0.139 nM, respectively.

B12: 620I-X0139-A12 (bispecific antibody)
heavy: not shown
light: DIQMTQSPSTLSASVGDRVTITCRASQSISSWLAWYQQKPGKAPKLLIYKASTLESGVPSRFSGSGSGTEFTLTISSLQPDDFATYYCQQYNTYWTFGQGTKVEIKRTVAAPSVFIFPPSDEQLKSGTASVVCLLNNFYPREAKVQWKVDNALQSGNSQESVTEQDSKDSTYSLSSTLTLSKADYEKHKVYACEVTHQGLSSPVTKSFNRGEC
notes: also called 620I-X139-A12
As to B12, the Ki in the test with plasma kallikrein (pKal) is 2.05 nM; with Factor XIIa (FXIIa), 4.08 nM.

B13: 620I-X0139-B10 (bispecific antibody)
heavy: not shown
light: DIQMTQSPSTLSASVGDRVTITCRASQSISSWLAWYQQKPGKAPKLLIYKASTLESGVPSRFSGSGSGTEFTLTISSLQPDDFATYYCQQYNTYWTFGQGTKVEIKRTVAAPSVFIFPPSDEQLKSGTASVVCLLNNFYPREAKVQWKVDNALQSGNSQESVTEQDSKDSTYSLSSTLTLSKADYEKHKVYACEVTHQGLSSPVTKSFNRGEC
notes: also called 620I-X139-B10
For the molecule B13, the Ki in the test with plasma kallikrein (pKal) came out at 0.247 nM; in the test with Factor XIIa (FXIIa), 0.189 nM.

B14: 620I-X0138-C12 (bispecific antibody)
heavy: not shown
light: DIQMTQSPSTLSASVGDRVTITCRASQSISSWLAWYQQKPGKAPKLLIYKASTLESGVPSRFSGSGSGTEFTLTISSLQPDDFATYYCQQYNTYWTFGQGTKVEIKRTVAAPSVFIFPPSDEQLKSGTASVVCLLNNFYPREAKVQWKVDNALQSGNSQESVTEQDSKDSTYSLSSTLTLSKADYEKHKVYACEVTHQGLSSPVTKSFNRGEC
notes: also called 620I-X138-C12
For the molecule B14, the Ki with plasma kallikrein (pKal) is 0.267 nM; with Factor XIIa (FXIIa), 0.697 nM.

B15: 620I-X0138-D11 (bispecific antibody)
heavy: not shown
light: DIQMTQSPSTLSASVGDRVTITCRASQSISSWLAWYQQKPGKAPKLLIYKASTLESGVPSRFSGSGSGTEFTLTISSLQPDDFATYYCQQYNTYWTFGQGTKVEIKRTVAAPSVFIFPPSDEQLKSGTASVVCLLNNFYPREAKVQWKVDNALQSGNSQESVTEQDSKDSTYSLSSTLTLSKADYEKHKVYACEVTHQGLSSPVTKSFNRGEC
notes: also called 620I-X138-D11
Turning to B15, the results for the Ki with plasma kallikrein (pKal) and with Factor XIIa (FXIIa) were 0.178 nM and 0.443 nM, respectively.

B16: 620I-X0138-B10 (bispecific antibody)
heavy: not shown
light: DIQMTQSPSTLSASVGDRVTITCRASQSISSWLAWYQQKPGKAPKLLIYKASTLESGVPSRFSGSGSGTEFTLTISSLQPDDFATYYCQQYNTYWTFGQGTKVEIKRTVAAPSVFIFPPSDEQLKSGTASVVCLLNNFYPREAKVQWKVDNALQSGNSQESVTEQDSKDSTYSLSSTLTLSKADYEKHKVYACEVTHQGLSSPVTKSFNRGEC
notes: also called 620I-X138-B10
With B16, the Ki came out at 0.075 nM with plasma kallikrein (pKal) and 0.058 nM with Factor XIIa (FXIIa).

B17: 620I-X0138-G12 (bispecific antibody)
heavy: not shown
light: DIQMTQSPSTLSASVGDRVTITCRASQSISSWLAWYQQKPGKAPKLLIYKASTLESGVPSRFSGSGSGTEFTLTISSLQPDDFATYYCQQYNTYWTFGQGTKVEIKRTVAAPSVFIFPPSDEQLKSGTASVVCLLNNFYPREAKVQWKVDNALQSGNSQESVTEQDSKDSTYSLSSTLTLSKADYEKHKVYACEVTHQGLSSPVTKSFNRGEC
notes: also called 620I-X138-G12
Regarding B17, the Ki amounted to 0.186 nM in the test with plasma kallikrein (pKal) and 0.766 nM with Factor XIIa (FXIIa).

B18: 620I-X0138-D06 (bispecific antibody)
heavy: not shown
light: DIQMTQSPSTLSASVGDRVTITCRASQSISSWLAWYQQKPGKAPKLLIYKASTLESGVPSRFSGSGSGTEFTLTISSLQPDDFATYYCQQYNTYWTFGQGTKVEIKRTVAAPSVFIFPPSDEQLKSGTASVVCLLNNFYPREAKVQWKVDNALQSGNSQESVTEQDSKDSTYSLSSTLTLSKADYEKHKVYACEVTHQGLSSPVTKSFNRGEC
notes: also called 620I-X138-D06
For B18, the Ki in the test with plasma kallikrein (pKal) was determined as 0.199 nM; with Factor XIIa (FXIIa) it was 0.132 nM.
